Experimental data taken from article PMC6981200.

Target: streptavidin-binding peptide-tagged constitutively active form of TAZ (SBP-TAZ4SA) (human) (UniProt Q9GZV5)
Chain of UniProt Q9GZV5 (Q9GZV5 whole entry): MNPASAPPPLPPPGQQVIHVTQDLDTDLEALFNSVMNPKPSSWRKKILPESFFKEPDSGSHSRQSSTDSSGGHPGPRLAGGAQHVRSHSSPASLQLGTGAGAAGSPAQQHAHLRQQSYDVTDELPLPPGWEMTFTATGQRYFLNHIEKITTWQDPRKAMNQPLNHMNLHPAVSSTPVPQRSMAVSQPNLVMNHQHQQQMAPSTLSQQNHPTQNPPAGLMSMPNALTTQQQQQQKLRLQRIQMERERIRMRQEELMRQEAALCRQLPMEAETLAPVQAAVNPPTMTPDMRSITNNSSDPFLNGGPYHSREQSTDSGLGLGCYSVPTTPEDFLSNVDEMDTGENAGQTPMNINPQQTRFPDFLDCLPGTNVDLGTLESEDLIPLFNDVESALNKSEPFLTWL

Flag-p52 (from UniProt Q9WTK5 1-454) (natural protein)
Ccl19 promoter-driven luciferase activity in HEK293T cells co-transfected with TAZ4SA and p52 (p52 alone: 7.5-fold): 13.5 fold
